Our source for the collision cross section values is the supplement of paper PMC10598134.

A short description of this data set: collision cross section of modified peptide (TIMS, N2, iRT-aligned); higher = larger / more extended gas-phase ion. In outline:
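Collision cross section values rest on the Mason-Schamp equation applied to calibrated, run-aligned mobility data from synthetic peptides. Mobility (1/K0) was calibrated with three reference ions and aligned per run to the median iRT peptide deviation, and 1–3 technical replicates of the most abundant feature per charge state were averaged. Data came from a timsTOF Pro/HT in dda-PASEF mode (nitrogen, ~2.4 mbar) after a 120-min nanoflow C18 gradient at 60 °C.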

The mark [1] stands for this setting: charge state: 2, modification: hydroxyisobutyryl.
The mark [2] stands for this setting: charge state: 2, modification: Citrullination (R).
The mark [3] stands for this setting: charge state: 3, modification: Citrullination (R).
[4] abbreviates: charge state: 3, modification: Methyl (R).
Setting [5] is: charge state: 2, modification: GlyGly (K).
[6] abbreviates: charge state: 3, modification: GlyGly (K).
[7] abbreviates: charge state: 2, modification: Succinyl.
[8] abbreviates: charge state: 3, modification: Succinyl.
Where [9] appears, read: charge state: 2, modification: Crotonyl.
Where [10] appears, read: charge state: 2, modification: Dimethyl (K).
Where [11] appears, read: charge state: 3, modification: Dimethyl (K).
[12] abbreviates: charge state: 3, modification: HexNAc (ST).
The mark [13] stands for this setting: charge state: 3, modification: Trimethyl (K).
Setting [14] is: charge state: 2, modification: Malonyl.
The mark [15] stands for this setting: charge state: 2, modification: Acetyl (K).
The mark [16] stands for this setting: charge state: 3, modification: Acetyl (K).
The mark [17] stands for this setting: charge state: 2, modification: Propionyl.
Setting [18] is: charge state: 2, modification: Butyryl.
Where [19] appears, read: charge state: 2, modification: Methyl (K).
Setting [20] is: charge state: 3, modification: Methyl (K).

± gives the standard deviation.

Regarding “ITLSKHQNVQLPR [_ITLSK(hydroxyisobutyryl)HQNVQLPR_]”, the collision cross section is, setting by setting: under setting [1], 443.83 ± 0.038 Å²; (charge state: 3, modification: hydroxyisobutyryl) 520.86 ± 27 Å². For “SHLRHAIPSAER [_SHLR(Citrullination (R))HAIPSAER_]”, the collision cross section came to 388.58 ± 0.81 Å² under setting [2] and 492.66 ± 4.6 Å² under setting [3].

Under setting [4], “YSSSSIPEPFGSRGSPR [_YSSSSIPEPFGSR(Methyl (R))GSPR_]” gave a collision cross section of 522.38 ± 1.8 Å².

In the case of “GTITVSAQELKDNR [_GTITVSAQELK(GlyGly (K))DNR_]”, the collision cross section runs as follows: under setting [5], 442.89 ± 0.96 Å²; under setting [6], 487.43 ± 0.34 Å². For LGNDFHTNKR [_LGNDFHTNK(Succinyl)R_], the collision cross section came to 377.52 ± 0.24 Å² under setting [7] and 436.15 ± 2.9 Å² under setting [8]. “YSRGAGLGFSTAPNK [_YSR(Citrullination (R))GAGLGFSTAPNK_]” had a collision cross section under setting [2] of 397.83 ± 0.22 Å². In the case of “SGRGGNFGFGDSR [_SGR(Methyl (R))GGNFGFGDSR_]”, the collision cross section under setting [4] came to 452.71 ± 3.1 Å². In the case of “GADFLVTEVENGGSLGSKK [_GADFLVTEVENGGSLGSK(Succinyl)K_]”, the collision cross section under setting [7] is 480.22 ± 1.1 Å² and the collision cross section under setting [8] amounted to 554.56 Å².

“VGIDTPDIDIHGPEGKLK [_VGIDTPDIDIHGPEGK(Crotonyl)LK_]”: the collision cross section by setting is: under setting [9], 496.91 Å²; (charge state: 3, modification: Crotonyl) 540.02 ± 1.3 Å². The sequence “LQAAYAGDKADDIQK [_LQAAYAGDK(Dimethyl (K))ADDIQK_]” displayed a collision cross section under setting [10] of 436.04 ± 1.1 Å² and a collision cross section under setting [11] of 470.88 ± 1.6 Å².

In turn, “FSYTSQHSDYGQR [_FS(HexNAc (ST))YTSQHSDYGQR_]” returned a collision cross section under setting [12] of 502.75 ± 0.96 Å². For “SGNLTEDDKHNNAK [_SGNLTEDDK(Trimethyl (K))HNNAK_]”, the collision cross section is on record as 419.32 ± 0.75 Å² (charge state: 2, modification: Trimethyl (K)) and 469.66 ± 1.5 Å² under setting [13]. Turning to IISSIEQKEENK [_IISSIEQK(Crotonyl)EENK_], the collision cross section under setting [9] is 407.53 ± 0.9 Å². Under setting [13], “DESFLGKLGGTLAR [_DESFLGK(Trimethyl (K))LGGTLAR_]” yielded a collision cross section of 477.03 ± 0.84 Å².

Take “LTEKELAEAASK [_LTEK(GlyGly (K))ELAEAASK_]”: the collision cross section runs as follows: under setting [5], 404.34 ± 0.36 Å²; under setting [6], 453.97 ± 1.1 Å².

In the case of “VNVEAPDVNLEGLGGKLK [_VNVEAPDVNLEGLGGK(Succinyl)LK_]”, the collision cross section under setting [7] is on record as 466.17 ± 1.4 Å² and the collision cross section under setting [8] was found to be 548.55 ± 1.1 Å². In the case of “ASNAAVKLAESK [_ASNAAVK(GlyGly (K))LAESK_]”, the collision cross section reads like this: under setting [5], 395.25 ± 1.5 Å²; under setting [6], 457.62 ± 1.1 Å².

LTSLNVKYNNDK [_LTSLNVK(Malonyl)YNNDK_] displayed a collision cross section under setting [14] of 402.04 ± 0.61 Å².

As to “ANLEKAQAELVGTADEATR [_ANLEK(Malonyl)AQAELVGTADEATR_]”, the collision cross section under setting [14] was 476.69 ± 0.96 Å² and the collision cross section (charge state: 3, modification: Malonyl) came out at 576.12 ± 0.95 Å². Turning to “IINEPTAAAIAYGLDKK [_IINEPTAAAIAYGLDK(Acetyl (K))K_]”, the collision cross section was found to be 458.66 ± 2.6 Å² under setting [15] and 554.46 ± 1.6 Å² under setting [16]. On to “LSFGLEDEPLETATK [_LSFGLEDEPLET(HexNAc (ST))ATK_]”, for which the collision cross section is, setting by setting: (charge state: 2, modification: HexNAc (ST)) 457.66 ± 0.56 Å²; under setting [12], 480.97 Å². Take “PASGAGAGAGAGKR [_PASGAGAGAGAGK(Propionyl)R_]”: the collision cross section under setting [17] came out at 359.78 ± 0.65 Å² and the collision cross section (charge state: 3, modification: Propionyl) came to 464.2 ± 0.076 Å². On to “VGVEVPDVNIEGPEGKLK [_VGVEVPDVNIEGPEGK(Butyryl)LK_]”, for which the collision cross section under setting [18] is 461.93 ± 0.5 Å². Consider “GEGGFGGRGGGR [_GEGGFGGR(Methyl (R))GGGR_]”, for which the collision cross section by setting is: (charge state: 2, modification: Methyl (R)) 345.55 ± 1 Å²; under setting [4], 413.1 Å². For “LEEVTGKLQVAR [_LEEVTGK(Methyl (K))LQVAR_]”, the collision cross section was 393.19 ± 1.7 Å² under setting [19] and 474.94 ± 3.5 Å² under setting [20].

On to “SPASDTYIVFGEAK [_SPASDTY(Phospho (Y))IVFGEAK_]”, for which the collision cross section (charge state: 2, modification: Phospho (Y)) is 410.05 Å².

With “TLHLSHLNRFPAR [_TLHLSHLNR(Citrullination (R))FPAR_]”, the collision cross section under setting [3] amounted to 509.04 ± 32 Å². Turning to “LGSPSGKTGTCR [_LGSPSGK(GlyGly (K))TGTCR_]”, the collision cross section under setting [6] was found to be 454.35 ± 1.5 Å². Sequence “SRFYSGFNSR [_SR(Citrullination (R))FYSGFNSR_]” yielded a collision cross section under setting [2] of 364.39 ± 0.53 Å². Regarding “DLGKFQVATDALK [_DLGK(hydroxyisobutyryl)FQVATDALK_]”, under setting [1], the collision cross section amounted to 409.13 ± 0.55 Å².

“VSPASSVDSNIPSSQGYKK [_VSPASSVDSNIPSSQGYK(Acetyl (K))K_]” gave a collision cross section under setting [15] of 458.38 ± 2.6 Å² and a collision cross section under setting [16] of 553.13 ± 0.49 Å². Take “TLHLSHLNRFPAR [_TLHLSHLNR(Methyl (R))FPAR_]”: under setting [4], the collision cross section was found to be 503.65 Å². In the case of “GFALVGVGSEASSKK [_GFALVGVGSEASSK(Dimethyl (K))K_]”, the collision cross section by setting is: under setting [10], 439.69 ± 1.2 Å²; under setting [11], 485.09 ± 1.2 Å². For “VFIGNLNTLVVKKK [_VFIGNLNTLVVK(Trimethyl (K))KK_]”, the collision cross section under setting [13] turned out to be 488.61 ± 1.1 Å². Regarding “SGKFTQQDIDEAK [_SGK(Propionyl)FTQQDIDEAK_]”, the collision cross section under setting [17] worked out at 414.71 ± 0.97 Å². Turning to “GEPGIPAIPGIR [_GEPGIP(Hydroxyproline)AIPGIR_]”, the collision cross section (charge state: 2, modification: Hydroxyproline) is 346.11 ± 0.79 Å². For the sequence “SGKFTQQDIDEAK [_SGK(Succinyl)FTQQDIDEAK_]”, the collision cross section under setting [7] is listed as 414.39 ± 0.54 Å². Take “DLSTVEALQNLKNLK [_DLSTVEALQNLK(Malonyl)NLK_]”: the collision cross section under setting [14] is given as 481.83 ± 1.5 Å².

Consider “DLGKFQVATDALK [_DLGK(Dimethyl (K))FQVATDALK_]”, for which the collision cross section reads like this: under setting [10], 400.58 ± 0.77 Å²; under setting [11], 478.59 ± 14 Å². On to “VPTTEKPTVTVNFR [_VPTTEK(Acetyl (K))PTVTVNFR_]”, for which the collision cross section under setting [15] turned out to be 421.49 ± 1.9 Å² and the collision cross section under setting [16] is listed as 507.52 ± 1 Å². For “FDDTNPEKEEAK [_FDDTNPEK(Methyl (K))EEAK_]”, the collision cross section is, setting by setting: under setting [19], 400.43 ± 1.8 Å²; under setting [20], 498.56 ± 1.5 Å². The sequence AIQLNPSYIR [_AIQLNPSY(Nitro (Y))IR_] registered a collision cross section (charge state: 2, modification: Nitro (Y)) of 380.21 ± 0.17 Å². As for “GTITVSAQELKDNR [_GTITVSAQELK(Acetyl (K))DNR_]”, the collision cross section by setting is: under setting [15], 415.96 ± 1.9 Å²; under setting [16], 479.46 ± 0.78 Å². Consider “ITGKNQVTATK [_ITGK(hydroxyisobutyryl)NQVTATK_]”, for which, under setting [1], the collision cross section was 372.92 ± 1.4 Å². With LDHLAEKFR [_LDHLAEK(Methyl (K))FR_], the collision cross section was 368.51 ± 0.5 Å² under setting [19] and 450.7 ± 4.8 Å² under setting [20]. On to “ALASIDSKLNQAK [_ALASIDSK(Butyryl)LNQAK_]”, for which the collision cross section under setting [18] was determined as 403.96 ± 0.85 Å². In the case of “SEASSEFAKK [_SEASSEFAK(hydroxyisobutyryl)K_]”, the collision cross section under setting [1] came to 356.42 ± 0.78 Å².
